One assay concerns the target PCM1 V1956D LIR peptide. The assay can be described thus: BLI; biotinylated LIR peptide immobilised on streptavidin biosensors (Octet Red 96), ATG8 protein in solution; 25 mM Tris pH 7.5, 150 mM NaCl, 0.5 mM TCEP, 0.1% Tween-20, 1 mg/ml BSA, 25 °C; Kd from response against concentration, Y=Rmax*X/(Kd+X).
For a further assay, the target named is PCM1 K1957I LIR peptide. The description is as above.
In the next assay the target is FIP200 T704I LIR peptide. The assay is described as above.
In assay [1] the target is PCM1 LIR peptide (biotinylated, BLI). In words: BLI; biotinylated LIR peptide (50 μg/ml) immobilised on streptavidin biosensor, ATG8 in solution; Octet Red 96; 25 mM Tris pH 7.5, 150 mM NaCl, 0.5 mM TCEP, 0.1% Tween-20, 1 mg/ml BSA; 25 °C; Kd from response against concentration. In general terms: In BLI a coated tip is dipped into the sample, and binding shifts an interference pattern.

Assay [2] addresses ULK1 LIR peptide (biotinylated, BLI) (human). Described as above.
A further assay addresses PCM1 WT LIR peptide. The assay can be described thus: BLI; biotinylated LIR peptide immobilised on streptavidin biosensors (Octet Red 96), ATG8 protein in solution; 25 mM Tris pH 7.5, 150 mM NaCl, 0.5 mM TCEP, 0.1% Tween-20, 1 mg/ml BSA, 25 °C; Kd from response against concentration, Y=Rmax*X/(Kd+X).
For assay [3], the target named is -L1 (recombinant, BLI) (human) (UniProt Q9H0R8). In words: BLI.
-L1 (recombinant, BLI) (human), sequence (Q9H0R8 whole entry): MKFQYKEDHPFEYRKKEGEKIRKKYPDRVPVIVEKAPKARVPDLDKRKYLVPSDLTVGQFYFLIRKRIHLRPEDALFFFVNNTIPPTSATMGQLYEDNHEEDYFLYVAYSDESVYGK
For another assay, the target named is GFP-GABARAP F60L (human) (UniProt O95166). The assay can be described thus: co-IP; GFP-TRAP beads, lysates of HEK293A cells expressing GFP-GABARAP or GFP-LC3B constructs, TNTE buffer, 2 h at 4 °C; immunoblot of endogenous proteins, quantified.
Another assay has as its target LC3B (Homo sapiens) (UniProt Q9GZQ8). The assay can be described thus: ITC. As to conditions: cited from earlier work.

GABARAP-L1 (recombinant, BLI), sequence (Q9H0R8 whole entry): as above
PCM1 LIR peptide mutated at P1962 (X7) (BLI), sequence (Q15154 whole entry, looked up, change not shown, tested part not stated): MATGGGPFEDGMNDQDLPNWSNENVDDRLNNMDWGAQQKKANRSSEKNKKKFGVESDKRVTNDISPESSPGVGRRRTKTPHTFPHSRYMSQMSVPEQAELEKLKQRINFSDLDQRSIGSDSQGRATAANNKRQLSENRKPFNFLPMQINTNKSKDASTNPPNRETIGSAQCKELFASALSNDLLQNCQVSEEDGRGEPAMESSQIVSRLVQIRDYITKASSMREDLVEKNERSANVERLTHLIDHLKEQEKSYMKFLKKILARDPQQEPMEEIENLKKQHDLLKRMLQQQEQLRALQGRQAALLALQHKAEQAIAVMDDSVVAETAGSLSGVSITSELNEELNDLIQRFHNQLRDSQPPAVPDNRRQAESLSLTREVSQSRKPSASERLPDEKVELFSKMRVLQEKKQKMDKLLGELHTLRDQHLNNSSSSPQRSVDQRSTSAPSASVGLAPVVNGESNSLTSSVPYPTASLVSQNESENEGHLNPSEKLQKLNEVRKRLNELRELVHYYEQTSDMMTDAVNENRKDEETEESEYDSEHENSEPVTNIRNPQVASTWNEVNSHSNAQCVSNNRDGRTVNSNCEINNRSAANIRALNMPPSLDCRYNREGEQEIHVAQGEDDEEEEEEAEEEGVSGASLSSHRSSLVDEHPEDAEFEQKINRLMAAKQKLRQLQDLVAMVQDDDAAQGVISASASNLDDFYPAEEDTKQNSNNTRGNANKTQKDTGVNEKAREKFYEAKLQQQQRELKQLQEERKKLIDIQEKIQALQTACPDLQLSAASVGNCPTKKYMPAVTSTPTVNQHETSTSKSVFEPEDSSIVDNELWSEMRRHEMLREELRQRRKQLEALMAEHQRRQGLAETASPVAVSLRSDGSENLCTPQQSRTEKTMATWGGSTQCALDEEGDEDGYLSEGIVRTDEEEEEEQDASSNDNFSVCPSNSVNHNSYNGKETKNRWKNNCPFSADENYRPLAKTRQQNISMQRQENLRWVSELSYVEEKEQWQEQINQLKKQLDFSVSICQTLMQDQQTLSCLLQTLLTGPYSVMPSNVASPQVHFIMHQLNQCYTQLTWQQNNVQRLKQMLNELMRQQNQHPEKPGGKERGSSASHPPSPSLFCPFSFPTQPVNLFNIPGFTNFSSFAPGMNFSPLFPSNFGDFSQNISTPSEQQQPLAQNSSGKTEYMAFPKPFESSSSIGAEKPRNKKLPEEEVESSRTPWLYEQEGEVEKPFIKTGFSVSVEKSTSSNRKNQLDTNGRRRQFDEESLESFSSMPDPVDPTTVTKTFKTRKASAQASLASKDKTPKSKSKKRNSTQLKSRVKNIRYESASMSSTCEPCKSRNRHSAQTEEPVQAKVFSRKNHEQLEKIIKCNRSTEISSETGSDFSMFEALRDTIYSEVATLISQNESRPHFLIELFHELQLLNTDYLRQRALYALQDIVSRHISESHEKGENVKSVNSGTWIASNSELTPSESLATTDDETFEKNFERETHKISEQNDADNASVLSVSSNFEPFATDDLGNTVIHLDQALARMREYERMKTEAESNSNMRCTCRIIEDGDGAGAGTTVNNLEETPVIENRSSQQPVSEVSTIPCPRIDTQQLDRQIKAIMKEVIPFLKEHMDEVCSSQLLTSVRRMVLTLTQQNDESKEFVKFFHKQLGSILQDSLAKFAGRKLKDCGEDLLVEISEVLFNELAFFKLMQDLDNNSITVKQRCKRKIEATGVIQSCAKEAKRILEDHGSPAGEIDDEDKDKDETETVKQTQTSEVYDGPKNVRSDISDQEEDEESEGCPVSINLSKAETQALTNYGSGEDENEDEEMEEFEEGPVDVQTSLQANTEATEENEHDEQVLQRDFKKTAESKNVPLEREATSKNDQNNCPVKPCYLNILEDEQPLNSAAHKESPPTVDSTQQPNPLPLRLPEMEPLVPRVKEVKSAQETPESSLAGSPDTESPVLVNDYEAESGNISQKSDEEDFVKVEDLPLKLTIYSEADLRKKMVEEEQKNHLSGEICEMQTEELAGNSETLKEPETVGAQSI

For orientation: Kd means the equilibrium constant for the complex coming apart. Substance “GABARAP (from UniProt O95166 1-117) (natural protein)” had a Kd with PCM1 V1956D LIR peptide of 7.72 µM.

As to “LC3C (from UniProt Q9BXW4 1-126) (natural protein)”, the dissociation constant Kd with PCM1 K1957I LIR peptide was determined as 384 nM; with FIP200 T704I LIR peptide it was 2000 nM.

For the substance “GABARAP-L1 (recombinant, BLI) (from UniProt Q9H0R8 1-117) (natural protein)”, the values for the Kd in [1] and in [2] were 1600 nM and 48 nM, respectively.

For “GABARAP K24Q/Y25H/Q59E/F60L (from UniProt O95166 1-117) (natural protein)”, the Kd with PCM1 WT LIR peptide worked out at 250 µM.

“GABARAP (recombinant, BLI) (from UniProt O95166 1-117) (natural protein)”: the dissociation constant Kd amounted to 2000 nM in assay [1] and 50 nM in assay [2].

For “PCM1 LIR peptide mutated at P1962 (X7) (BLI) (from UniProt Q15154)”, the Kd in assay [3] amounted to 880 nM.

“GABARAP K24Q (from UniProt O95166 1-117) (natural protein)” showed an equilibrium dissociation constant (Kd) with PCM1 WT LIR peptide of 16.6 µM.

Turning to “LC3A (from UniProt Q9H492 1-121) (natural protein)”, in the assay with PCM1 K1957I LIR peptide, the Kd is 3930 nM.

Regarding “GABARAP K24Q/Y25H/R28K (from UniProt O95166 1-117) (natural protein)”, the dissociation constant (Kd) in the assay with PCM1 WT LIR peptide is 66 µM.

“PCM1 (pericentriolar material 1), Q15154-5 1-2016” yielded a percent reduction of interaction against WT GABARAP in the assay with GFP-GABARAP F60L (human) of 90%.

With “GABARAP Y25H (from UniProt O95166 1-117) (natural protein)”, the equilibrium dissociation constant (Kd) in the assay with PCM1 WT LIR peptide was found to be 11.5 µM.

For p62 LIR (from UniProt Q13501), the dissociation constant (Kd) with LC3B (Homo sapiens) is 3.2 µM.

(Values after article PMC6499816, “Molecular determinants regulating selective binding of autophagy adapters and receptors to ATG8 proteins” (Nature Communications, 2019).)
